T1: 重组人ICOSLG蛋白 (human, UniProt O75144 19-258)
T1 construct: The words 携带hFc标签的 stand before the first protein of the list; also called Acrobiosystem Cat.B72-H5254
T1 sequence (looked up): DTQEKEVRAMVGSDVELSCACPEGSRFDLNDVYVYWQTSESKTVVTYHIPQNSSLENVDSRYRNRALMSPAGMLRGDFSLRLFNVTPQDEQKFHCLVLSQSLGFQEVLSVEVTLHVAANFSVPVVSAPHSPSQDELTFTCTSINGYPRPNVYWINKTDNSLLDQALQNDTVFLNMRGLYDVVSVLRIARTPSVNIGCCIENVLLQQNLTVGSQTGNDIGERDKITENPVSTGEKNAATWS

T2: 重组人PD-L2蛋白 (human, UniProt Q9BQ51 20-219)
T2 construct: The words 携带hFc标签的 stand before the first protein of the list; also called Acrobiosystem Cat.PD2-H5251
T2 sequence (looked up): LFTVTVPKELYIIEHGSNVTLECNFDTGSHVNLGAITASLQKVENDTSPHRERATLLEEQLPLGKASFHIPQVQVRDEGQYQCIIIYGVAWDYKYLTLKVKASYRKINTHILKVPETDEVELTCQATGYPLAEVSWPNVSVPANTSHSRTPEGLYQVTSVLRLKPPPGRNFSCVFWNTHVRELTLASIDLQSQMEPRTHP

T3: 重组人CD276蛋白 (human, UniProt Q5ZPR3-2 29-245)
T3 construct: The words 携带hFc标签的 stand before the first protein of the list; also called B7-H3; Acrobiosystem Cat.B73-H5253
T3 sequence (looked up): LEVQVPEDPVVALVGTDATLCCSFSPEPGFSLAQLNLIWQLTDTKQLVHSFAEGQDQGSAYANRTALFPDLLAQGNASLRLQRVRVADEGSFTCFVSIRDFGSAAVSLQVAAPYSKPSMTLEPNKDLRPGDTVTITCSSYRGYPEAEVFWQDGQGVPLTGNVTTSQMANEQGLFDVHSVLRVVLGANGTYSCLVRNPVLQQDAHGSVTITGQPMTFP

T4: 重组人CD86蛋白 (human, UniProt P42081 26-247)
T4 construct: The words 携带hFc标签的 stand before the first protein of the list; also called Acrobiosystem Cat.CD6-H5257
T4 sequence (looked up): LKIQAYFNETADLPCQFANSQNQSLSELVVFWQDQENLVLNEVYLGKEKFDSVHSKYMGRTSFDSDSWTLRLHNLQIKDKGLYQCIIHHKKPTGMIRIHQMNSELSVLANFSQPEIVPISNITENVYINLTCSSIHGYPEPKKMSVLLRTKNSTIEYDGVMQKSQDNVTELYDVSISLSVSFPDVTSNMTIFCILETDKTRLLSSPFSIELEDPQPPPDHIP

T5: 重组人ICOS蛋白 (human, UniProt Q9Y6W8 21-140)
T5 construct: The words 携带hFc标签的 stand before the first protein of the list; also called Acrobiosystem Cat.ICS-H5250
T5 sequence (looked up): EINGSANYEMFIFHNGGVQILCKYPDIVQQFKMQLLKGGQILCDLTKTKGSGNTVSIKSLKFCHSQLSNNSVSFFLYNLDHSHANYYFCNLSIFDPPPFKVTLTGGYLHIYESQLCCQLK


Tests used:
人PD-L1 (on cells) = target: T6, 人PD-L1 (on cells) (human, UniProt Q9NZQ7 19-290); assay: flow cytometry on IFNγ-stimulated A375 cells
T6 construct: whole, on cells; One molecule for human PD-L1 on CHO-hPD-L1, on IFNγ-stimulated A375 and on CHO-hPD-L1-OKT3 cells; the cell is named under assay; also called CHO-hPD-L1稳定细胞株; 稳定表达人PD-L1的CHO

重组人CD28蛋白 = target: T7, 重组人CD28蛋白 (human, UniProt P10747 19-152); assay: ELISA, protein coated at 1μg/ml
T7 construct: The words 携带hFc标签的 stand before the first protein of the list; also called Acrobiosystem Cat.CD8-H525a

重组人ICOSLG蛋白 = target: T1, 重组人ICOSLG蛋白; assay: ELISA, protein coated at 1μg/ml
重组人PD-1蛋白(自产) = target: T8, 重组人PD-1蛋白(自产) (human, UniProt Q15116 25-167); assay: ELISA, protein coated at 1μg/ml
T8 construct: The words 携带hFc标签的 stand before the first protein of the list

重组人PD-L2蛋白 = target: T2, 重组人PD-L2蛋白; assay: ELISA, protein coated at 1μg/ml
重组人CTLA-4蛋白 = target: T9, 重组人CTLA-4蛋白 (human, UniProt P16410 37-162); assay: ELISA, protein coated at 1μg/ml
T9 construct: The words 携带hFc标签的 stand before the first protein of the list; also called Acrobiosystem Cat.CT4-H5255

重组人CD276蛋白 = target: T3, 重组人CD276蛋白; assay: ELISA, protein coated at 1μg/ml
重组人CD86蛋白 = target: T4, 重组人CD86蛋白; assay: ELISA, protein coated at 1μg/ml
重组人ICOS蛋白 = target: T5, 重组人ICOS蛋白; assay: ELISA, protein coated at 1μg/ml
小鼠PD-L1 (on CHO cells) = target: T10, 小鼠PD-L1 (on CHO cells) (mouse, UniProt Q9EP73 19-290); assay: flow cytometry on CHO-mPD-L1 cells
T10 construct: whole, on cells; also called CHO-mPD-L1稳定细胞株; 稳定表达全长小鼠PD-L1的CHO

hPD-L1-his = target: T11, hPD-L1-his (human, UniProt Q9NZQ7 19-238); assay: BLI (ForteBIO), hPD-L1-his on anti-Penta-HIS sensor
T11 construct: extracellular domain; also called 携带his标签的人PD-L1胞外区重组蛋白; not shown: his tag
T11 sequence (Q9NZQ7 19-238): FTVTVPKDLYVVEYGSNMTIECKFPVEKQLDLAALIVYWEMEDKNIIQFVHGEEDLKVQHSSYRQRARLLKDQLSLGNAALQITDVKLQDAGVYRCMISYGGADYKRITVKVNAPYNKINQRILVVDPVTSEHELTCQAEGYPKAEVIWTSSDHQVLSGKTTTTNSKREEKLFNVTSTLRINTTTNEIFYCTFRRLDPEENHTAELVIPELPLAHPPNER

T8 sequence (Q15116 25-167): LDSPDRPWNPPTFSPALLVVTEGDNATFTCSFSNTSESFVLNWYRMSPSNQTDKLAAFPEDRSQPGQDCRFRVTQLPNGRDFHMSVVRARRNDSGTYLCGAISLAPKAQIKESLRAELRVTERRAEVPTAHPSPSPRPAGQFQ
T10 sequence (Q9EP73 19-290): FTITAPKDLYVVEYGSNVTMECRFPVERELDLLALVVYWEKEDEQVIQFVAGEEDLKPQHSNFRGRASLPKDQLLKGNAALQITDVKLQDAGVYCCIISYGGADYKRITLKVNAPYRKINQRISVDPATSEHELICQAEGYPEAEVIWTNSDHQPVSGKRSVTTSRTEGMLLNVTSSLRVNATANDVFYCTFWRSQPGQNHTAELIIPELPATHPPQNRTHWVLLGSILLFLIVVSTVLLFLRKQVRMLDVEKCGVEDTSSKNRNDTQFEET
T6 sequence (Q9NZQ7 19-290): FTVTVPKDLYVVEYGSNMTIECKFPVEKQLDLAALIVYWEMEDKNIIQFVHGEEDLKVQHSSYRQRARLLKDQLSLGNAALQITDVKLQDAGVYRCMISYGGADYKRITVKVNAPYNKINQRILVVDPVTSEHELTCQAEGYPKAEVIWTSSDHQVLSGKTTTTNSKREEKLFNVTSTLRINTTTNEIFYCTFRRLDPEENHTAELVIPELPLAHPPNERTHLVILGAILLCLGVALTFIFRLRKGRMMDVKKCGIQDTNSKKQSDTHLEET
T9 sequence (P16410 37-162): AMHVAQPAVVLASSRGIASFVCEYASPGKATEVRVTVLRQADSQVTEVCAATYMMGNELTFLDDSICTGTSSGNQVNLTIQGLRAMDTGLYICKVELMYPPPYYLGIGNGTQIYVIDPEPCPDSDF

Row | Binder | EC50 (人PD-L1 (on cells)) | binding result (重组人CD28蛋白) | binding result (重组人ICOSLG蛋白) | binding result (重组人PD-1蛋白(自产)) | binding result (重组人PD-L2蛋白) | binding result (重组人CTLA-4蛋白) | binding result (重组人CD276蛋白) | binding result (重组人CD86蛋白) | binding result (重组人ICOS蛋白) | binding result (小鼠PD-L1 (on CHO cells)) | Kd (hPD-L1-his)
1 | 176L4H2 (antibody, V domains shown, Whole humanized mAb expressed in 293 cells; detected with anti-human IgG; also called 抗人PD-L1人源化抗体176L4H2) VH: QVQLQESGPGLVKPSETLSLTCAVYGDSITSGYWNWIRKPPGKKLEYIGYISYTGSTYQNPSLKSRITMSRDTSKNQYYLKLSSVTAADTAVYYCARSRAWIRTYFDYWGQGTLVTVSS VL: DIQMTQSPSSLSASVGDRVTITCSVSSSISSSNLHWYQQKPGKAPKPWIYGTSNLASGVPSRFSGSGSGTDYTLTISSLQPEDFATYYCQQWSSYPLTFGQGTKLEIKR | ~0.2 nM | no binding (tested: 10μg/ml) | no binding (tested: 10μg/ml) | no binding (tested: 10μg/ml) | no binding (tested: 10μg/ml) | no binding (tested: 10μg/ml) | no binding (tested: 10μg/ml) | no binding (tested: 10μg/ml) | no binding (tested: 10μg/ml) | no binding (tested: 20μg/ml) | 0.0848 nM
2 | 176L4H1 (antibody, V domains shown, Whole humanized mAb expressed in 293 cells; detected with anti-human IgG; also called 抗人PD-L1人源化抗体176L4H1) VH: QVQLQESGPGLVKPSETLSLTCAVYGDSITSGYWNWIRKPPGKGLEYIGYISYTGSTYQNPSLKSRITMSRDTSKNQYYLKLSSVTAADTAVYYCARSRAWIRTYFDYWGQGTLVTVSS VL: DIQMTQSPSSLSASVGDRVTITCSVSSSISSSNLHWYQQKPGKAPKPWIYGTSNLASGVPSRFSGSGSGTDYTLTISSLQPEDFATYYCQQWSSYPLTFGQGTKLEIKR | ~0.2 nM | no binding (tested: 10μg/ml) | no binding (tested: 10μg/ml) | no binding (tested: 10μg/ml) | no binding (tested: 10μg/ml) | no binding (tested: 10μg/ml) | no binding (tested: 10μg/ml) | no binding (tested: 10μg/ml) | no binding (tested: 10μg/ml) | no binding (tested: 20μg/ml) | 0.0084 nM
3 | 176L4H3 (antibody, V domains shown, Whole humanized mAb expressed in 293 cells; detected with anti-human IgG; also called 抗人PD-L1人源化抗体176L4H3) VH: QVQLQESGPGLVKPSETLSLTCAVYGDSITSGYWNWIRKPPGKKLEYIGYISYTGSTYQNPSLKSRITFSRDTSKNQYYLKLSSVTAADTAVYYCARSRAWIRTYFDYWGQGTLVTVSS VL: DIQMTQSPSSLSASVGDRVTITCSVSSSISSSNLHWYQQKPGKAPKPWIYGTSNLASGVPSRFSGSGSGTDYTLTISSLQPEDFATYYCQQWSSYPLTFGQGTKLEIKR | ~0.2 nM | no binding (tested: 10μg/ml) | no binding (tested: 10μg/ml) | no binding (tested: 10μg/ml) | no binding (tested: 10μg/ml) | no binding (tested: 10μg/ml) | no binding (tested: 10μg/ml) | no binding (tested: 10μg/ml) | no binding (tested: 10μg/ml) | no binding (tested: 20μg/ml) | 0.08 nM
4 | 176L4H4 (antibody, V domains shown, Whole humanized mAb expressed in 293 cells; detected with anti-human IgG; also called 抗人PD-L1人源化抗体176L4H4) VH: QVQLQESGPGLVKPSETLSLTCSVYGDSITSGYWNWIRKPPGKKLEYMGYISYTGSTYQNPSLKSRITFSRDTSKNQYYLKLSSVTAADTAVYYCARSRAWIRTYFDYWGQGTLVTVSS VL: DIQMTQSPSSLSASVGDRVTITCSVSSSISSSNLHWYQQKPGKAPKPWIYGTSNLASGVPSRFSGSGSGTDYTLTISSLQPEDFATYYCQQWSSYPLTFGQGTKLEIKR | ~0.2 nM | no binding (tested: 10μg/ml) | no binding (tested: 10μg/ml) | no binding (tested: 10μg/ml) | no binding (tested: 10μg/ml) | no binding (tested: 10μg/ml) | no binding (tested: 10μg/ml) | no binding (tested: 10μg/ml) | no binding (tested: 10μg/ml) | no binding (tested: 20μg/ml) | 0.0881 nM
5 | 176L5H2 (antibody, V domains shown, Whole humanized mAb expressed in 293 cells; detected with anti-human IgG; also called 抗人PD-L1人源化抗体176L5H2) VH: QVQLQESGPGLVKPSETLSLTCAVYGDSITSGYWNWIRKPPGKKLEYIGYISYTGSTYQNPSLKSRITMSRDTSKNQYYLKLSSVTAADTAVYYCARSRAWIRTYFDYWGQGTLVTVSS VL: EIVLTQSPSSLSASVGDRVTITCSVSSSISSSNLHWYQQKPGKAPKPWIYGTSNLASGVPSRFSGSGSGTDYTLTISSLQPEDFATYYCQQWSSYPLTFGQGTKLEIKR | ~0.2 nM | no binding (tested: 10μg/ml) | no binding (tested: 10μg/ml) | no binding (tested: 10μg/ml) | no binding (tested: 10μg/ml) | no binding (tested: 10μg/ml) | no binding (tested: 10μg/ml) | no binding (tested: 10μg/ml) | no binding (tested: 10μg/ml) | no binding (tested: 20μg/ml) | 0.109 nM

From patent CN116178545A (GUANGDONG FEIPENG PHARMACEUTICAL CO LTD, dated 2023)
